Results from PMC9482650, “Quantitative fragmentomics allow affinity mapping of interactomes” (Nature Communications, 2022).

T1: DFNB31_1, Q9P202
T1 sequence (Q9P202 135-233, limits assumed, looked up): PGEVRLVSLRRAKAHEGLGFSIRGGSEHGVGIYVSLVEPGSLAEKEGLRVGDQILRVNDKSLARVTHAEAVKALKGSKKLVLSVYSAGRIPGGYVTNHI

T2: DFNB31_2, Q9P202
T2 sequence (Q9P202 274-371, limits assumed, looked up): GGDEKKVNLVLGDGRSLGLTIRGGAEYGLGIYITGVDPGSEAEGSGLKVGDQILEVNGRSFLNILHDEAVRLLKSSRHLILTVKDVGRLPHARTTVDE

T3: FRMPD1, Q5SYB0
T3 sequence (Q5SYB0 52-145, limits assumed, looked up): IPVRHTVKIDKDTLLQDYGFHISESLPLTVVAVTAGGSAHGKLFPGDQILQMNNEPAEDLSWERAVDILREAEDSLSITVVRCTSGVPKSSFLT

T4: GRIP1_2, Q9Y3R0
T4 sequence (Q9Y3R0 145-248, limits assumed, looked up): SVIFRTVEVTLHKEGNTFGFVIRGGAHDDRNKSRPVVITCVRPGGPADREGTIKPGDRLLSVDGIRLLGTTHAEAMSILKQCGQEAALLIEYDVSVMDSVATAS

T5: LRRC7, Q96NW7
T5 sequence (Q96NW7 1440-1537, limits assumed, looked up): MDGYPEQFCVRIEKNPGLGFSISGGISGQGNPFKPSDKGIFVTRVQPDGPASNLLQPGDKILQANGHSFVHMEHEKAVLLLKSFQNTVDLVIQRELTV

T6: MPP2, Q14168
T6 sequence (Q14168 180-250, limits assumed, looked up): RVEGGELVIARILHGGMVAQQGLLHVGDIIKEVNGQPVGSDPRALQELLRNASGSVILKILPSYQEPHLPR

T7: PCLO, Q9Y6V0
T7 sequence (Q9Y6V0 4491-4600, limits assumed, looked up): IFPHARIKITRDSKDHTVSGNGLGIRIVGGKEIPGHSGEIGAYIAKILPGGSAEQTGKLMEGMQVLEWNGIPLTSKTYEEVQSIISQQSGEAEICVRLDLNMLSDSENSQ

T8: PDZD2_2, O15018
T8 sequence (O15018 329-429, limits assumed, looked up): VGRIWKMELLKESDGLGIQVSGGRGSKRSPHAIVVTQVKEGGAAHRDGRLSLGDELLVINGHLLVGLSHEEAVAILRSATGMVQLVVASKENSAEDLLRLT

T9: PDZRN3_1, Q9UPQ7
T9 sequence (Q9UPQ7 244-349, limits assumed, looked up): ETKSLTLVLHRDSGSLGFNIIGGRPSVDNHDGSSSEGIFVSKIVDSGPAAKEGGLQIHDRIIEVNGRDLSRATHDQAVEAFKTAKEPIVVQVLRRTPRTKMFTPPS

T10: PTPN13_1, Q12923
T10 sequence (Q12923 1088-1188, limits assumed, looked up): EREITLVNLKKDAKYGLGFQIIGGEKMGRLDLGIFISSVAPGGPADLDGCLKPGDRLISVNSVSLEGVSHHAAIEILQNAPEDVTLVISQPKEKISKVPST

T11: SNTG1, Q9NSN8
T11 sequence (Q9NSN8 52-150, limits assumed, looked up): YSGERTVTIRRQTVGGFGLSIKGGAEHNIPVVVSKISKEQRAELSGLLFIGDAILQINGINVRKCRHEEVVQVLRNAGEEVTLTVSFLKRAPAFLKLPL

T12: SYNJ2BP, P57105
T12 sequence (P57105 8-110, limits assumed, looked up): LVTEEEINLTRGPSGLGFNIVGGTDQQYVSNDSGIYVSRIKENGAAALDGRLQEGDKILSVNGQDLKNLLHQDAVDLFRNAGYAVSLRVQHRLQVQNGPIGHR

T13: TIAM2, Q8IVF5
T13 sequence (Q8IVF5 885-986, limits assumed, looked up): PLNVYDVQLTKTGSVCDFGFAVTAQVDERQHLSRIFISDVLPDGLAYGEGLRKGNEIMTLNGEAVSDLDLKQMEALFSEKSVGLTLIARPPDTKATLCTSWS

T14: TX1BP3, O14907
T14 sequence (O14907 10-122, limits assumed, looked up): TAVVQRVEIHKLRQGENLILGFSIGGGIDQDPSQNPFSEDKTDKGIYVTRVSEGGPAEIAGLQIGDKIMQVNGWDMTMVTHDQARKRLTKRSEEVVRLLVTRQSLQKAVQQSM

B1: UNC93A, Q86WB7 (peptide)
chain: AEDEEIQTKM
B2: PKN2, Q16513 (peptide)
chain: RDFDYIADWC
B3: YAP1, P46937 (peptide)
chain: LDKESFLTWL

Each binder was assayed against CASK, O14936 (assay: holdup assay). Details: plain residues with an end cap or a label only (N-terminal biotin on a linker: ado-ado).
Chain of CASK, O14936 (O14936 487-570): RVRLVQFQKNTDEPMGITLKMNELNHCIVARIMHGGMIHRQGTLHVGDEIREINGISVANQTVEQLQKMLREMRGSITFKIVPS
Parameters: key: below the threshold = too weak to quantify, mostly under pKd 3.1 to 4

pKd | Binder
below the threshold | B1
3.54 | B2
below the threshold | B3

The binders below were run against T1, DFNB31_1, Q9P202 (assay: holdup assay). Details: plain residues with an end cap or a label only (N-terminal biotin on a linker: ado-ado).
Parameters: key: below the threshold = too weak to quantify, mostly under pKd 3.1 to 4

pKd | Binder
below the threshold | B1
3.69 | B2
3.77 | B3

What follows are binders tested against T2, DFNB31_2, Q9P202 (assay: holdup assay). Details: plain residues with an end cap or a label only (N-terminal biotin on a linker: ado-ado).
Parameters: key: below the threshold = too weak to quantify, mostly under pKd 3.1 to 4

pKd | Binder
below the threshold | B1
below the threshold | B2
below the threshold | B3

Each binder was assayed against DLG5_1, Q8TDM6 (assay: holdup assay). Details: plain residues with an end cap or a label only (N-terminal biotin on a linker: ado-ado).
Chain of DLG5_1, Q8TDM6 (Q8TDM6 617-713): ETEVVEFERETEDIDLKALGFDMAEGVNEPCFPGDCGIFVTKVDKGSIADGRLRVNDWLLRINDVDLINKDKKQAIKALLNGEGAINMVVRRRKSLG
Parameters: key: below the threshold = too weak to quantify, mostly under pKd 3.1 to 4

pKd | Binder
below the threshold | B1
below the threshold | B2
below the threshold | B3

Each binder was assayed against T3, FRMPD1, Q5SYB0 (assay: holdup assay). Details: plain residues with an end cap or a label only (N-terminal biotin on a linker: ado-ado).
Parameters: key: below the threshold = too weak to quantify, mostly under pKd 3.1 to 4

pKd | Binder
below the threshold | B1
below the threshold | B2
below the threshold | B3

Each binder was assayed against FRMPD2_3, Q68DX3 (assay: holdup assay). Details: plain residues with an end cap or a label only (N-terminal biotin on a linker: ado-ado).
Chain of FRMPD2_3, Q68DX3 (Q68DX3 1073-1166): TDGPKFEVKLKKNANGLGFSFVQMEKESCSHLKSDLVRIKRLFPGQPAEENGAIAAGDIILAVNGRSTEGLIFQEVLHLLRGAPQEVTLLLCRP
Parameters: key: below the threshold = too weak to quantify, mostly under pKd 3.1 to 4

pKd | Binder
below the threshold | B1
below the threshold | B2
below the threshold | B3

What follows are binders tested against FRMPD4, Q14CM0 (assay: holdup assay). Details: plain residues with an end cap or a label only (N-terminal biotin on a linker: ado-ado).
Chain of FRMPD4, Q14CM0 (Q14CM0 67-160): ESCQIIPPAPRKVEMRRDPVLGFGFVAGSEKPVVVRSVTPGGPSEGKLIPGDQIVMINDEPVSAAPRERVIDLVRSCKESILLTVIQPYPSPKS
Parameters: key: below the threshold = too weak to quantify, mostly under pKd 3.1 to 4

pKd | Binder
3.63 | B1
below the threshold | B2
5.25 | B3

What follows are binders tested against GIPC2, Q8TF65 (assay: holdup assay). Details: plain residues with an end cap or a label only (N-terminal biotin on a linker: ado-ado).
Chain of GIPC2, Q8TF65 (Q8TF65 112-203): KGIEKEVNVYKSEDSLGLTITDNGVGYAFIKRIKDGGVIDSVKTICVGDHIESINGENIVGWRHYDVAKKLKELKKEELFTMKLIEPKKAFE
Parameters: key: below the threshold = too weak to quantify, mostly under pKd 3.1 to 4

pKd | Binder
below the threshold | B1
below the threshold | B2
below the threshold | B3

The binders below were run against T4, GRIP1_2, Q9Y3R0 (assay: holdup assay). Details: plain residues with an end cap or a label only (N-terminal biotin on a linker: ado-ado).
Parameters: key: below the threshold = too weak to quantify, mostly under pKd 3.1 to 4

pKd | Binder
below the threshold | B1
3.7 | B2
3.51 | B3

These binders were tested against GRIP2_6, Q9C0E4 (assay: holdup assay). Details: plain residues with an end cap or a label only (N-terminal biotin on a linker: ado-ado).
Chain of GRIP2_6, Q9C0E4 (Q9C0E4 648-740): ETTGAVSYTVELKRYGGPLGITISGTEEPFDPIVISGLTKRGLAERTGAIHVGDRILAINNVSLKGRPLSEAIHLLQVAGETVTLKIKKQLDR
Parameters: key: below the threshold = too weak to quantify, mostly under pKd 3.1 to 4

pKd | Binder
below the threshold | B1
below the threshold | B2
below the threshold | B3

The binders below were run against Inadl_3, Q8NI35 (assay: holdup assay). Details: plain residues with an end cap or a label only (N-terminal biotin on a linker: ado-ado).
Chain of Inadl_3, Q8NI35 (Q8NI35 359-469): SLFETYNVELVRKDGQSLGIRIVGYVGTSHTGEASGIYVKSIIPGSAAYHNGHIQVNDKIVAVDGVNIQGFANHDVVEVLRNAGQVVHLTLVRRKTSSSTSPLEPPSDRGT
Parameters: key: below the threshold = too weak to quantify, mostly under pKd 3.1 to 4

pKd | Binder
below the threshold | B1
3.6 | B2
4.38 | B3

The binders below were run against T5, LRRC7, Q96NW7 (assay: holdup assay). Details: plain residues with an end cap or a label only (N-terminal biotin on a linker: ado-ado).
Parameters: key: below the threshold = too weak to quantify, mostly under pKd 3.1 to 4

pKd | Binder
below the threshold | B1
below the threshold | B2
4.17 | B3

These binders were tested against MAGI1_2, Q96QZ7 (assay: holdup assay). Details: plain residues with an end cap or a label only (N-terminal biotin on a linker: ado-ado).
Chain of MAGI1_2, Q96QZ7 (Q96QZ7 456-580): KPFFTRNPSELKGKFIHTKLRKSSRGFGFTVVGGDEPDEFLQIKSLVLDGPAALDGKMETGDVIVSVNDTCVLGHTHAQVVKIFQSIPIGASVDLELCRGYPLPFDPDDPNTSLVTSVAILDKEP
Parameters: key: below the threshold = too weak to quantify, mostly under pKd 3.1 to 4

pKd | Binder
below the threshold | B1
below the threshold | B2
3.49 | B3

What follows are binders tested against T6, MPP2, Q14168 (assay: holdup assay). Details: plain residues with an end cap or a label only (N-terminal biotin on a linker: ado-ado).
Parameters: key: below the threshold = too weak to quantify, mostly under pKd 3.1 to 4

pKd | Binder
below the threshold | B1
3.49 | B2
below the threshold | B3

The binders below were run against T7, PCLO, Q9Y6V0 (assay: holdup assay). Details: plain residues with an end cap or a label only (N-terminal biotin on a linker: ado-ado).
Parameters: key: below the threshold = too weak to quantify, mostly under pKd 3.1 to 4

pKd | Binder
below the threshold | B1
below the threshold | B2
3.57 | B3

These binders were tested against T8, PDZD2_2, O15018 (assay: holdup assay). Details: plain residues with an end cap or a label only (N-terminal biotin on a linker: ado-ado).
Parameters: key: below the threshold = too weak to quantify, mostly under pKd 3.1 to 4

pKd | Binder
below the threshold | B1
5.54 | B2
5.88 | B3

Each binder was assayed against T9, PDZRN3_1, Q9UPQ7 (assay: holdup assay). Details: plain residues with an end cap or a label only (N-terminal biotin on a linker: ado-ado).
Parameters: key: below the threshold = too weak to quantify, mostly under pKd 3.1 to 4

pKd | Binder
below the threshold | B1
below the threshold | B2
3.73 | B3

Each binder was assayed against T10, PTPN13_1, Q12923 (assay: holdup assay). Details: plain residues with an end cap or a label only (N-terminal biotin on a linker: ado-ado).
Parameters: key: below the threshold = too weak to quantify, mostly under pKd 3.1 to 4

pKd | Binder
below the threshold | B1
below the threshold | B2
below the threshold | B3

The binders below were run against T11, SNTG1, Q9NSN8 (assay: holdup assay). Details: plain residues with an end cap or a label only (N-terminal biotin on a linker: ado-ado).
Parameters: key: below the threshold = too weak to quantify, mostly under pKd 3.1 to 4

pKd | Binder
below the threshold | B1
below the threshold | B2
below the threshold | B3

What follows are binders tested against SNX27, Q96L92 (assay: holdup assay). Details: plain residues with an end cap or a label only (N-terminal biotin on a linker: ado-ado).
Parameters: key: below the threshold = too weak to quantify, mostly under pKd 3.1 to 4

pKd | Binder
4.5 | B1
4.32 | B2
5.11 | B3

The binders below were run against T12, SYNJ2BP, P57105 (assay: holdup assay). Details: plain residues with an end cap or a label only (N-terminal biotin on a linker: ado-ado).
Parameters: key: below the threshold = too weak to quantify, mostly under pKd 3.1 to 4

pKd | Binder
below the threshold | B1
3.73 | B2
4.47 | B3

These binders were tested against T13, TIAM2, Q8IVF5 (assay: holdup assay). Details: plain residues with an end cap or a label only (N-terminal biotin on a linker: ado-ado).
Parameters: key: below the threshold = too weak to quantify, mostly under pKd 3.1 to 4

pKd | Binder
below the threshold | B1
4.19 | B2
3.6 | B3

These binders were tested against T14, TX1BP3, O14907 (assay: holdup assay). Details: plain residues with an end cap or a label only (N-terminal biotin on a linker: ado-ado).
Parameters: key: below the threshold = too weak to quantify, mostly under pKd 3.1 to 4

pKd | Binder
below the threshold | B1
below the threshold | B2
4.26 | B3
